Data reported in patent publication US20190216790A1, “Methods for Treating Pruritis” (The Regents of the University of California, priority 2016, published 2019).
“Also recorded” adds a separate entry of the source.

Tested on: mice
Experiment: CXCL1-induced itch, subcutaneous injection in mice
Format: in vivo
Excerpt: CXCL1 is the mouse homologue for human Interleukin-8, which is increased in several inflammatory skin disorders including psoriasis and atopic dermatitis. […] Importantly, CXCL1-induced itch is entirely dependent on neutrophils (FIG. 1B). […] In addition, loss of TRPA1 results in reduced CXCL1 expression in skin. Blocking/ablation of the high-affinity LTB4 receptor, BLT1, also results in reduction of CXCL1-induced itch (FIG. 1C). Both LTB4 and reactive oxygen species (ROS) are produced by neutrophils and have been proposed to directly activate neurons and induce itch. It is shown here that neutrophils also play a key role in chronic itch. In a mouse model of atopic dermatitis, depletion of neutrophils during induction of itch drastically reduces itch and inflammatory responses (FIG. 1D). It is shown here that CXCL1 is increased in multiple mouse models of chronic itch, and LTB4 is increased in skin of mice with atopic dermatitis. It is proposed that neutrophils activate sensory neurons through the ion channel TRPA1 in a CXCL1/BLT1/LTB4-dependent fashion (FIG. 1E).
FIG. 1A-1E. […] (D) Depletion of neutrophils in a mouse model of atopic dermatitis greatly reduces itch. (E) Model showing proposed interactions. Atopic dermatitis results in increased levels of IL8 (humans) or CXCL1 (mice) that recruits neutrophils. Neutrophils activate sensory neurons to promote itch in a TRPA1 and BLT1-dependent manner. For all data, one-way ANOVA was performed with a Tukey-Kramer post hoc statistical analysis. Tukey-Kramer values are reported and only p<0.05 were considered significant; **=p<0.005; ***=p<0.0005; n.s.=not significant.

B1: CXCL1: a neutrophil chemoattractant and natural ligand for CXCR2; the mouse homologue for human Interleukin-8 (protein, UniProt P12850 25-96, looked up)
Growth-regulated alpha protein: APIANELRCQCLQTMAGIHLKNIQSLKVLPSGPHCTQTEVIATLKNGREACLDPEAPLVQKIVQKMLKGVPK
With B1 the CXCL1-induced itch (depletion of neutrophils (FIG. 1B)) was “abolishes CXCL1-induced itch”, the itch (injected subcutaneously in mice (FIG. 1A)) was “robustly induces itch; also recorded: induces robust itch” and the “itch responses to CXCL1” value (mice lacking TRPA1 (FIG. 1A)) was “reduced itch responses”. The “itch responses to CXCL1 injection” value (mice lacking the LTB4 receptor (BLT1) (FIG. 1C)) was “reduced itch responses”.
